Measurements as given in patent US11370846B2, “Compositions and methods to regulate Renalase in the treatment of cancer” (Yale University, priority 2014, dated 2022).
Entries after “also recorded” stand apart in the source; their conditions may differ.

Test system: A375.S2 xenograft tumors
Assay type: in vivo
Procedure: Immunohistochemistry was performed as described previously (Guo et al., 2012 Cancer science. 103:1474-80). Briefly, tumor tissues were formalin-fixed, paraffin-embedded and cut into 5-μm sections on glass slides. The slides were de-paraffinized and hydrated, followed by antigen retrieval in a pressure cooker containing 10 mM sodium citrate, pH6 buffer. The sections were blocked in 3% hydrogen peroxide for 30 min and 2.5% normal horse serum in PBS/0.1% Tween20 for 1 h followed by incubation with primary antibody and isotype control IgG overnight at 4° C. The following antibodies were used in this study: m28-RNLS at 500 ng/ml; goat polyclonal anti-RNLS at 250 ng/ml (Abcam, ab31291); rabbit monoclonal anti-CD68 (BDBioscience, 1:100); rabbit monoclonal anti-CD163 (AbD Serotec, 1:100); rabbit monoclonal anti-CD86 (Abcam, 1:100); rabbit monoclonal anti-Ki67 (Vector Lab, VP-RM04, 1:100); rabbit monoclonal anti-p21, phspho-Tyr^705-Stat3, and total Stat3 (Cell Signaling Technologies, #2947, 1:100, #9145, 1:400, and #4904, 1:400, respectively). ImmPRESS peroxidase-anti-rabbit IgG (Vector Laboratories, Burlingame, Calif., USA) was used to detect primary antibodies. The color was developed using a Vector DAB substrate kit and counterstained with hematoxylin (Vector Laboratories). Slides were observed and photographed using an Olympus BX41 microscope and camera (Olympus America Inc, Center Valley, Pa., USA).
Female athymic, 18-20 g nude mice (nu/nu) were obtained from Charles River (Willimantic, Conn.) and housed in microisolator cages, with autoclaved bedding in a specific pathogen-free facility, with a 12-h light/dark cycle.
Xenograft tumors were established by subcutaneous injection of A375.S2 cells (2×10^6 in 100 μl of PBS, pH 7.6). When the tumors reached a volume of 50-100 mm^3, the mice were divided into a control group (n=14 treated with rabbit IgG, 40 μg by intraperitoneal injection (IP) once weekly, and 40 ug subcutaneously (SQ) around the tumor site every 3 days), and an experimental group (n=14) that received m28-RNLS (40 μg IP, once weekly, and 40 ug SQ, every 3 days). Tumor size was measured with digital calipers and volume was calculated according to the formula (length×width)×π/2.
At the end of the study, the mice were sacrificed, the tumors were excised and immediately snap-frozen in liquid nitrogen and stored at −80° C. Apoptosis was examined using the TUNEL assay (Roche in situ Apoptosis Detection System), according to the manufacturer's instructions. Sections were examined by light microscopy and the apoptosis index was determined by counting >1000 cells in 10 randomly selected high-power fields (×200 magnification).

B1: 1D-28-4: rabbit anti-renalase monoclonal raised against peptide RP-220 (antigen 1D); heavy chain SEQ ID NO:9, light chain SEQ ID NO:10 (antibody)
heavy: METGLRWLLLVAVLKGVQCQSVEESGGRLVTPGTPLTLTCTVSGFSLSSFAVGWVRQAPGKGLEYIGIISSVGITRYASWAAGRFTISKTSTTVDLKITSPTTEDTATYFCARYGYSGDVNRLDLWGQGTLVTVSSGQPKAPSVFPLAPCCGDTPSSTVTLGCLVKGYLPEPVTVTWNSGTLTNGVRTFPSVRQSSGLYSLSSVVSVTSSSQPVTCNVAHPATNTKVDKTVAPSTCSKPTCPPPELLGGPSVFIFPPKPKDTLMISRTPEVTCVVVDVSQDDPEVQFTWYINNEQVRTARPPLREQQFNSTIRVVSTLPIAHQDWLRGKEFKCKVHNKALPAPIEKTISKARGQPLEPKVYTMGPPREELSSRSVSLTCMINGFYPSDISVEWEKNGKAEDNYKTTPAVLDSDGSYFLYSKLSVPTSEWQRGDVFTCSVMHEALHNHYTQKSISRSPGK
light: MDTRAPTQLLGLLLLWLPGATFAQVLTQTASPVSAAVGGTVTINCQASQSVYDNNNLAWYQQKPGQPPKQLIYGASTLASGVSSRFKGSGSGTQFTLTISGVQCDDAATYYCLGEFSCSSADCFAFGGGTEVVVKGDPVAPTVLIFPPSADLVATGTVTIVCVANKYFPDVTVTWEVDGTTQTTGIENSKTPQNSADCTYNLSSTLTLTSTQYNSHKEYTCKVTQGTTSVVQSFNRGDC
modifications: oryctolagus cuniculus
- Ki67 positive cells (IHC of xenografted tumors): 13.4±3.0 positive cells/high power field
- p21 positive cells (IHC of xenografted tumors): 24.2±2.4 positive cells
- number of CD163+ TAMs (immunofluorescence of xenografts, listed as m28-RNLS): decreases CD163+TAMs
- total and phosphorylated STAT3 in tumors (immunofluorescence, listed as m28-RNLS): marked reduction; also recorded: dramatic reduction
- ratio of CD86+ to CD163+ TAMs (mouse, in vivo): increases the ratio
- toxicity of antibody treatment (overall animal health and activity): did not appear to be toxic
- mouse RNLS expression in tumor mass (qPCR, mouse specific primers): significant reduction
- p-Y705-STAT3 and total STAT3 in tumors (western blot): significantly decreased
